Test results reported in a protein production outcome set (Wang et al. 2014).
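Note: failed if final PepcDB status was selected cloned or expressed and not failed if soluble or beyond.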

Assay: label from the status in PepcDB records
For “MIYFCHAPNDRAIAEKIYFSLKQTGLTCWIPSQDIMAGQYYVEAIANAIEKSDIVVFIFSSHSNTSIQVIDELQKASSLNKTIIPFCVDRAMPSEPIEHYLSSPYKVDATIGLPDDNIAKLQNIIKQIYNQSSVHNANDINTVKDTFAPSNPLENNTNIIKDASDNNSQESIQFNGVINSANSQPPQNPNLPPQHQMNPNFNNTVNNMDRNMNYPIKQNVRPNPQVKSSNKIKIPLIIGGSIAGGIILLSILFMLGKNLLFSTLINSHRPSDNPVIGSNIRIDGSKYTEEEIIEFTKNAILELDRLQASREFYDTYAYNAPEYDLMRIQENVFFSLMDLDVVRFEEVAILGKNEKEHGIEYLLKVDFVCYADYEYTENNETVHRKGEALLYNNVVILETPNDGLKYLYMEGIFEDELNARNENLESSYREIAESGDVNTEDTIQTYLPDSTDEDTIMSVKDIVKKNDHKVVAVYVDVPGGQSQGSGFFIKDGVIVTNYHVIEGGKSAKILLSNGNYVDVEGVLYTDSDVDIAVLKLVNEVGIEPVTIGQARDSDKGSIAVAIGSPLGLFNTVSTGIISNFWEANGVNLIQISIPITHGNSGGALFNESGKLIGITSSGIGEANLNFAISSTHIIPICEDIKNIPYNQLNAVPLSSAGGNINSITRQAGSSNSNQSSSSGKSLLSSKYRFVNSDKPISNDATYTSDLQTIYDLALNKYYAKEDLYRDLDYAFDYILDYGTKYYLEYLEYILHETYIKEDVENFNKINESVLEVLNTTGEYIEFTADEIEIIGAGIKNDGTIDGIIVRALFYENSEPYVRSKFYFRANYDAWSYVDGFLYVGEVTEK”, the protein production was “failed”.
In the case of “MIYGILSKNLGMPTPTFLVCPDVVKFENVGQIAVVNGMVYLGGSVGIDKSGTLHKGLEEQTRQTFDNIRKCLEYANSGLDYIVSLNIFLSTSLSDSEEARFNELYREVFCVPATRPCRCCVRAQLQEGLLVEVVNVVAAQK”, the protein production is reported as “not failed”.
With “MIYLAITTLIWAFSFGLIGNALKGLDPLQIADTRLLLALIAFIPFMKFGNTNGKEKRQLILLGALQYGVMYTCYLSAFRYLPSHLVALFSVLTPLYIVIINDLRQRSFTPWYLVATVLSVFGAAIIKMGNIDSNEIWLGFGLMQVANLAFAFGQVYYRDWKRSRAHITDSSIFGFLYLGAAIFTTIATLLISHQPPIPLNATPTQWFVLVYMGIIASGLCFFLWNKGGTQTSVGVLATFNNAVVPLAMFASLFIFGEAKGGTPEELVRLTIGSLLIVSALLIAKRK” the protein production was “failed”.
In the case of “MIYLFLALLSYACTYCLVGLLIQGQLADVAEGLRHRPDAPTPGEYLREVGPRARQARRQYTLIAGSVLAVLACLIASGFG”, the protein production is reported as “failed”.
In the case of “MIYLHAIDPIAFSLGPVQVHWYGLMYLAAFFSAWALGRSRILRGRLPGVDMDGFSDLLFYGMLGVVLGGRIGYMLFYAFETFLANPLILFKVWEGGMSFHGGLLGVLIACWLWARKHRLHFFDVMDFVAPLVPLGLGFGRLGNFVGGELWGKFTQAGWGVIFPHAPELADRLPAQIQAQYAAGALNQFARHPSQLYEAALEGVVMFVVLWTFSMKPRARYAVSGLFALLYGVFRFIVEFVRVPDAPIGYLAFNWLTMGQILSLPLVAVGLVLLAMSRRAPVLQPVLPVPAGVEAAK”, the protein production is reported as “failed”.
In the case of “MIYLLLGAVIITFLLWPRGRALLKGDGWRVGAGAAAIAAFAVAAYATIRGAWGTGIVLGVIGLWSVTEARRRPIVRREVVHPPKPELSLSEARAILGVGPEASLAEVKAAYNRLIQMAHPDKGGTEGLAAQLNAARDRLIKPRGSARVEP”, the protein production is reported as “failed”.
With “MIYWLYLAVFFLLSALDAKEIAMQRFDKQNHKIFEILADKVSAKDNVITASGNAILLNYDVYILADKVRYDTKTKEALLEGNIKVYRGEGLLVKTDYVKLSLNEKYEIIFPFYVQDSVSGIWVSADIASGKDQKYKVKNMSTSGCSIDNPIWHVNATSGSFNMQKSHLSMWNPKIYVGDIPVLYLPYIFMSTSNKRTTGFLYPEFGTSNLDGFIYLQPFYLAPKNSWDMTFTPQIRYKRGFGLNFEARYINSKNDRFLFNARYFRNYTQYVKRYDLRNQNIYGFEFLSSSRDTLQKYFHLKSNIDNGHYIDFLYMNDLDYVRFEKVNKRITDATHMSRANYYLQTENNYYGLNIKYFLNLNKINNNRTFQSVPNLQYHKYLNSLYFRNLLYSVDYQFRNTAREIGYGYVQNALNVPVGLQFSLFKKYLSLGLWNDLQLSNVALMQSKNSFVPTIPNESREFGNFVSSNFSMYVNTDLAREYNKLFHTIQLEAIFNIPYYTFKNGLFSQNMYALSAQALNSYTSPLLRDYDYQGRLYDSVWNPSSILPSNASNKTVDLTLTQYLYGLGGQELLYFKISQLINLDDKVSPFRMPLESKIGFSPLTGLNIFGNVFYSFYQNRLEEISVNANYQRKFLSFNLSYFLKNNFSSGINSIVENLRII” the protein production was “failed”.
With “MKAADEPAYLTVGTDVSAKYRGAFCEAKIKTVKRLVKVKVLLKQDNTTQLVQDDQVKGPLRVGAIVETRTSDGSFQEAIISKLTDASWYTVVFDDGDERTLRRTSLCLKGERHFAESETLDQLPLTNPEHFGTPVIAKKTNRGRRSSLPVTEDEKEEESSEEEDEDKRRLNDELLGKVVSVVSATERTEWYPALVISPSCNDDITVKKDQCLVRSFIDSKFYSIARKDIKEVDILNLPESELSTKPGLQKASIFLKTRVVPDNWKMDISEILESSSSDDEDGPAEENDEEKEKEAKKTEEEVPEEELDPEERDNFLQQLYKFMEDRGTPINKPPVLGYKDLNLFKLFRLVYHQGGCDNIDSGAVWKQIYMDLGIPILNSAASYNVKTAYRKYLYGFEEYCRSANIQFRTVHHHEPKVKEEKKDLEESMEEALKLDQEMPLTEVKSEPEENIDSNSESEREEIELKSPRGRRRIARDVNSIKKEIEEEKTEDKLKDNDTENKDVDDDYETAEKKENELLLGRKNTPKQKEKKIKKQEDSDKDSDEEEEKSQEREETESKCDSEGEEDEEDMEPCLTGTKVKVKYGRGKTQKIYEASIKSTEIDDGEVLYLVHYYGWNVRYDEWVKADRIIWPLDKGGPKKKQKKKAKNKEDSEVDEKRDEERQKSKRGRPPLKSTLSSNMPYGLSKTANSEGKSDSCSSDSETEDALEKNLINEELSLKDELEKNENLNDDKLDEENPKISAHILKENDRTQMQPLETLKLEVGENEQIVQIFGNKMEKTEEVKKEAEKSPKGKGRRSKTKDLSLEIIKISSFGQNEAGSEPHIEAHSLELSSLDNKNFSSATEDEIDQCVKEKKLKRKILGQSSPEKKIRIENGMEMTNTVSQERTSDCIGSEGMKNLNFEQHFERENEGMPSLIAESNQCIQQLTSERFDSPAEETVNIPLKEDEDAMPLIGPETLVCHEVDLDDLDEKDKTSIEDVAVESSESNSLVSIPPALPPVVQHNFSVASPLTLSQDESRSVKSESDITIEVDSIAEESQEGLCERESANGFETNVASGTCSIIVQERESREKGQKRPSDGNSGLMAKKQKRTPKRTSAAAKNEKNGTGQSSDSEDLPVLDNSSKCTPVKHLNVSKPQKLARSPARISPHIKDGEKDKHREKHPNSSPRTYKWSFQLNELDNMNSTERISFLQEKLQEIRKYYMSLKSEVATIDRRRKRLKKKDREVSHAGASMSSASSDTGMSPSSSSPPQNVLAVECR” the protein production was “not failed”.
For “MKAALLDQVARVGKALANGRRLQILDLLAQGERAVEAIATATGMNLTTASANLQALKSGGLVEARREGTRQYYRIAGEDVARLFALVQVVADEHLADVAVLEHHHHHH”, the protein production was “failed”.
In the case of “MKADDSRFFSFLKDRIGLDVTSVGEAIIERALRQRAKAANCADSDDYWHLLISSPQEQQALIEAVIVPETWFFRYPESFVTLGMLARERIASLAGVRPLRILSLPCSTGEEPYSIAMALFDAGVDARQFKVDAVDISPVSIAKAVHGIYGKNSFRGSDLSYRERFFSAITDGFEVADEIRACVNFQPGNLLDPKLASQVPYDIVFCRNLVIYFDRPTQQRVFQVLKQLTREDGLLFIGPAEGNLLAGIGMRSIGIAQSFAFRHAPAEAAAPAQVQAAAPIAPRPVVEAPARSPAPTPRPAARTSAAFAPLAKPAAAAGNSEVSALLDTIAGLANEGKSAEARAACERYLQQHEPVAQVFYWLGLLSEVEGAVVQAQGFYRKALYLQPQHRESLAQLAALLAAQGDSAGARRLQDRAARGANKQGNH”, the protein production is reported as “failed”.
For “MKAFTVHQAKTHLSRLLKAVEEGEEVVILRGKTPVARLVPYRKGKRPLGFVPGKLPESFFEPLPEEELALWEGATS”, the protein production was “not failed”.
